Source: patent publication US20260226190A1 (CITY OF HOPE, published 2026)
Substitutions are numbered along the chain they refer to. In names and notes the source's numbering stands. Blank lines part the entries; values can stand above or below the binder they belong to.

What was measured:
[1] = molecular target: T1, BSA (UniProt P02769 25-607); assay: ELISA, BSA-coated control wells
T1 construct: Control coating in the ELISA; also called bovine serum albumin (control coating)
Experimental: (§1) Specificity and affinity of antigen binding was further evaluated by performing saturation binding on immobilized antigen in ELISA. Recombinant human PSCA-mouse Fc fusion protein (hPSCA-mFc, produced in house) was immobilized (1 μg/mL, 100 µL/well in PBS overnight at 4° C.). Serial dilutions of anti-PSCA scFvFc's ([…]) were incubated for 1 h at RT and after washing bound antibody fragments were detected using goat anti-human IgG-Fc-AP antibody (1:10,000) and pNPP substrate (alkaline phosphatase yellow, liquid substrate, Sigma-Aldrich P7998). The enzymatic reaction was stopped using 50 μL 2M NaOH and absorbance was red at 405 nm in an SpectraMax M2 microplane reader. Specific binding was fitted using the “one site-specific binding” equation to determine the Kd (ligand concentration that binds half the antigen sites at equilibrium) and Bₘₐₓ (maximum number of binding sites).
The purified proteins were tested for specific binding to recombinant antigen by ELISA on immobilized human PSCA-mouse Fc protein. Dose-dependent binding was detected for wells coated with hPSCA-mFc and no non-specific binding was detected in BSA coated control wells.

[2] = molecular target: T2, Recombinant human PSCA-mouse Fc fusion protein (human; mouse, UniProt O43653 12-83, limits assumed); assay: ELISA saturation binding on immobilized hPSCA-mFc, one site-specific binding fit (EC50=Kd), n=3
T2 construct: Those marks are not visible here; also called hPSCA-mFc; human PSCA-murine Fc fusion protein; not shown: mouse Fc
T2 sequence: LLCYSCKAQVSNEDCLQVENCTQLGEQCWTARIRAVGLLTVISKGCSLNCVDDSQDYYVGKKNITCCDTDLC
Experimental: as §1

[3] = molecular target: T3, Human prostate stem cell antigen (PSCA) expressed on RM9-hPSCA murine prostate cancer cells (human, UniProt O43653 12-83); assay: saturation binding on PSCA-expressing cells
T3 construct: RM9 cells transduced with human PSCA; also called RM9-hPSCA cells
T3 sequence: T2 sequence
Source text: (§2) The resulting saturation binding curves were fitted (one-site specific binding, GraphPad Prism) to determine Kd and Bₘₐₓ from four independent experiments. […] (FIG. 6)
Two novel anti-PSCA scFv-Fc variants (A2SM, A2aG) were designed, produced, and purified (FIG. 1). SDS-PAGE and SEC analysis confirmed purity and dimeric self-assembly. […] A2SM was successfully radiolabeled with ⁸⁹Zr (efficiency: >90%, purity >99%, n=2) resulting in a specific activity of ~0.17 MBq/μg (FIG. 2). […] Therefore, the novel A2SM could deliver a higher cytotoxic dose to the tumor while the liver remains the dose-limiting organ.

[4] = molecular target: T3, Human prostate stem cell antigen (PSCA) …; assay: flow cytometry saturation binding on RM9-hPSCA cells, one-site specific binding fit, four independent experiments
Source text: as §2

[5] = molecular target: T2, Recombinant human PSCA-mouse Fc fusion …; assay: ELISA saturation binding on hPSCA-mFc (value given for the 'previous' variant)

T1 sequence (P02769 25-607 limits assumed): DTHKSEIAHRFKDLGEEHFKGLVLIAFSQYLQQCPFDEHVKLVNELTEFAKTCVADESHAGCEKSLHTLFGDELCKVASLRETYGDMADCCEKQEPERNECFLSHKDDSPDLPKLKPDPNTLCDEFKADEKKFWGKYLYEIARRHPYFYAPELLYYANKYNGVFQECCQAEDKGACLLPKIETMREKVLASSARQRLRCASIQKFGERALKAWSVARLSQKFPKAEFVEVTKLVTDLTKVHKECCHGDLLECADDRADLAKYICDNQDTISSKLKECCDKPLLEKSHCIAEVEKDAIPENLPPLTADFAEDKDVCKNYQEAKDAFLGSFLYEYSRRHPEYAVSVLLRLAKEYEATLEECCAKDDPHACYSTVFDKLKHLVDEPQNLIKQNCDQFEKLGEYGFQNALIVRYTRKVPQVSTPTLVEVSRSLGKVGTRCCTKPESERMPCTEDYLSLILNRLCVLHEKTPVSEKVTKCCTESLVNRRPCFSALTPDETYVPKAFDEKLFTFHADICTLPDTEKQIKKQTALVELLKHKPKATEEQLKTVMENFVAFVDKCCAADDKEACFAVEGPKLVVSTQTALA

B1: A2scFv-Fc2 SM (anti-PSCA A2 scFv-Fc2 single mutant, H310A, with K322A) (Fc fusion)
chain: EVQLVESGGGLVQPGGSLRLSCAASGFNIKDYYIHWVRQAPGKGLEWVAWIDPEYGDSEFVPKFQGRATMSADTSKNTAYLQMNSLRAEDTAVYYCKTGGFWGRGTLVTVSSGGGGSGGGGSGGSAQDIQLTQSPSSLSASVGDRVTITCSASSSVRFIHWYQQKPGKAPKRLIYDTSKLASGVPSRFSGSGSGTDFTLTISSLQPEDFATYYCQQWGSSPFTFGQGTKVEIKVECPPCPAPPVAGPSVFLFPPKPKDTLMISRTPEVTCVVVDVSHEDPEVQFNWYVDGMEVHNAKTKPREEQFNSTFRVVSVLTVVAQDWLNGKEYKCAVSNKGLPAPIEKTISKTKGQPREPQVYTLPPSREEMTKNQVSLTCLVKGFYPSDIAVEWESNGQPENNYKTTPPMLDSDGSFFLYSKLTVDKSRWQQGNVFSCSVMHEALHNHYTQKSLSLSPGK
notes: Homodimeric scFv-Fc of about 110 kDa, glycosylated, made in FreeStyle 293-F cells; I could not check whether that entry includes a leader peptide from the pSecTag2A vector; also called A2SM; A2scFv-Fc2-SM w/K322A
binding result [1]: no binding | Kd [2]: 0.59 nM | Kd [3]: 3.3 nM | Kd [4]: 3.74 nM

B4: A2scFv-Fc2 (anti-PSCA A2 scFv-Fc2 without FcRn-site mutations) (Fc fusion)
chain: B1 chain with A319H, A331K
notes: also called A2Fc2
Kd [5]: 0.5 nM

Second part, the binder after the results:

Kd [5]: 0.8 nM
B2: A2scFv-Fc2 DM (anti-PSCA A2 scFv-Fc2 double mutant, H310A/H435Q) (Fc fusion)
chain: B1 chain with A331K, H444Q

binding result [1]: no binding | Kd [2]: 0.8 nM | Kd [3]: 3.1 nM | Kd [4]: 3.28 nM
B3: A2scFv-Fc2 DMaG (anti-PSCA A2 scFv-Fc2 double mutant aglycosylated, H310A/H435Q, N297Q, with K322A) (Fc fusion)
chain: B1 chain with N306Q, H444Q
notes: I could not check whether that entry includes a leader peptide; also called A2DMaG; A2scFv-Fc2-DMaG w/K322A
